The subject of data set [1] is murine antigen presenting cells. Nature of the data set: nitric oxide (NO) secretion by antigen presenting cells. It is filed as cell-based. Here is the method: (§1) Further experiments indiate that dimer content correlates with the ability of gp96 to stimulate chemokine/nitric oxide release by antigen presenting cells. Gp96 purified from the Meth-A murine fibrosarcoma tumors, subjected to both thermal and pH perturbations. This material was analyzed by SEC and NECA binding for its ability to induce murine antigen presenting cells to secrete MCP-1 and nitric oxide. […] NECA ligand binding and both MCP-1 and NO production decreased concomitantly with the loss of dimer. A similar trend was observed upon exposure of gp96 to pH 3, but not pH 7 or 9.

A short description of data set [2]: % dimer by size exclusion chromatography (SEC). It is filed as physicochemical. The procedure:
Gp96-peptide complex was isolated from murine CT-26 tumors. Separate aliquots of each preparation were either maintained at 4° C. (untreated) or subjected to mild heat treatment to denature the complex.
HPLC size exclusion chromatography is currently being optimized and has been run under a few different formats. The column was either a TSK 3000SWXL (Toso Haus) or a Superose 6 (Amersham Pharmacia) equilibrated in 10 mM phosphate buffer, pH 7.1, with 300 mM NaCl. All experiments were run at room temperature on a Waters Alliance or HP 1100 HPLC systems at a flow rate of 0.5 mL/min. The following results for human tumor derived gp96 (reported in Table 3, below) were all analyzed on the Superose 6 column. % dimer values represent the area percent of the dimer peak relative to total peak area.
On the technique in general: SEC sorts molecules by how far they enter the pores of the column.

The nature of another data set: NECA ligand binding. The procedure:
Dimer content also correlates with the ability of gp96 to bind NECA. Using the gp96-peptide complex isolated from CT-26 tumors, aliquots of each preparation were also analyzed for NECA ligand binding.

The test system of data set [3] is murine antigen presenting cells. Description: MCP-1 secretion by antigen presenting cells. It is filed as cell-based. Here is the method: as §1

Results on one molecule are retold here after patent US20050221395A1, “Methods and products based on oligomerization of stress proteins” (priority 2002, published 2005).

B1: gp96: Gp96 purified from the Meth-A murine fibrosarcoma tumors, subjected to thermal and pH perturbations (FIG. 2) (protein, UniProt P08113 22-802, looked up)
Endoplasmin: DDEVDVDGTVEEDLGKSREGSRTDDEVVQREEEAIQLDGLNASQIRELREKSEKFAFQAEVNRMMKLIINSLYKNKEIFLRELISNASDALDKIRLISLTDENALAGNEELTVKIKCDKEKNLLHVTDTGVGMTREELVKNLGTIAKSGTSEFLNKMTEAQEDGQSTSELIGQFGVGFYSAFLVADKVIVTSKHNNDTQHIWESDSNEFSVIADPRGNTLGRGTTITLVLKEEASDYLELDTIKNLVRKYSQFINFPIYVWSSKTETVEEPLEEDEAAKEEKEESDDEAAVEEEEEEKKPKTKKVEKTVWDWELMNDIKPIWQRPSKEVEEDEYKAFYKSFSKESDDPMAYIHFTAEGEVTFKSILFVPTSAPRGLFDEYGSKKSDYIKLYVRRVFITDDFHDMMPKYLNFVKGVVDSDDLPLNVSRETLQQHKLLKVIRKKLVRKTLDMIKKIADEKYNDTFWKEFGTNIKLGVIEDHSNRTRLAKLLRFQSSHHSTDITSLDQYVERMKEKQDKIYFMAGSSRKEAESSPFVERLLKKGYEVIYLTEPVDEYCIQALPEFDGKRFQNVAKEGVKFDESEKTKESREATEKEFEPLLNWMKDKALKDKIEKAVVSQRLTESPCALVASQYGWSGNMERIMKAQAYQTGKDISTNYYASQKKTFEINPRHPLIRDMLRRIKEDEDDKTVMDLAVVLFETATLRSGYLLPDTKAYGDRIERMLRLSLNIDPEAQVEEEPEEEPEDTSEDAEDSEQDEGEEMDAGTEEEEEETEKESTEKDEL
modifications: Meth-A tumor derived
Regarding B1, in data set [1] (heated to 50° C. and 60° C. for 30 minutes (FIG. 2D)), the “ability to stimulate murine APC secretion of NO” value was “rapid drop”. The “NO secretion by murine APCs” value in data set [1] (pH 3.0 (FIG. 2H)) is given as “markedly reduced”. Further, the dimer level result in data set [2] (heated at 50° C. and 60° C., at 30 minutes (FIG. 2A)) is listed as “Neither sample contained dimers”. The dimer levels entry in data set [2] (pH 3.0 (FIG. 2E)) was “markedly reduced”. The NECA binding ability result is given as “Neither sample of gp96 could bind NECA” in “NECA ligand binding” (heated to 50° C. and 60° C., at 30 minutes (FIG. 2B)); “markedly reduced” in “NECA ligand binding” (pH 3.0 (FIG. 2F)). In data set [3] (heated to 50° C. and 60° C. for 30 minutes (FIG. 2C)), the “ability to stimulate murine APC secretion of MCP-1” value is recorded as “rapid drop”. Moreover, the “MCP-1 secretion by murine APCs” value in data set [3] (pH 3.0 (FIG. 2G)) is recorded as “markedly reduced”.
